Measured values reported in patent publication US12156920B2, “Double-labeled probe for molecular imaging and use thereof” (Deutsches Krebsforschungszentrum, priority 2017, dated 2024).

Columns and labels:
[1] = Biodistribution (organ distribution) of 68Ga-labeled compounds; assay type: in vivo, mice; conditions: male, BALB/c nu/nu, mouse, in vivo, iv, 60 pmol, total radioactivity
Protocol: (§1) The precursor peptides [1 nmol in HEPES buffer (580 mg/ml), 90 μL] were added to 40 μL [^68Ga]Ga^3+ eluate (˜40 MBq). The pH was adjusted to 3.8 using 30% NaOH and 10% NaOH, respectively. The reaction mixture was incubated at 98° C. for 10 minutes. The radiochemical yield (RCY) was determined by HPLC. For the experimental tumor models 5×10^6 cells of LNCaP (in 50% Matrigel; Becton Dickinson, Heidelberg, Germany) were subcutaneously inoculated into the right trunk of 7- to 8-week-old male BALB/c nu/nu mice (Charles River). The tumors were allowed to grow until approximately 1 cm^3 in size. The ^68Ga-labeled compounds were injected into a tail vein (1-2 MBq; 60 pmol). […] Organs of interest were dissected, blotted dry, and weighed. The radioactivity was measured using a gamma counter and calculated as % ID/g. All animal experiments complied with the current laws of the Federal Republic of Germany.

[2] = system: LNCaP-tumor bearing balb/c nu/nu mice; test: as above; assay type: in vivo; conditions: mouse, in vivo
Protocol: as §1

PSMA = target: T1, PSMA (Homo sapiens, UniProt Q04609); test: Competitive cell binding assay on LNCaP cells (PSMA binding affinity); conditions: competition against 0.2 nM 68Ga-labeled PSMA-10
T1 construct: endogenous in cells; host or cells: LNCaP cells (ATCC CRL-1740)
Protocol: PSMA^+ LNCaP cells (ATCC CRL-1740) were cultured in RPMI medium supplemented with 10% fetal calf serum and 2 mmol/L L-glutamine (all from PAA). Cells were grown at 37° C. in humidified air with 5% CO2 and were harvested using trypsin-ethylenediaminetetraacetic acid (trypsin-EDTA; 0.25% trypsin, 0.02% EDTA, Invitrogen).
The competitive cell binding assay and internalization experiments were performed as described previously (4). Briefly, the cells (10^5 per well) were incubated with a 0.2 nM solution of ^68Ga-labeled radioligand [Glu-urea-Lys(Ahx)]2-HBED-CC (PSMA-10, precursor ordered from ABX, Radeberg, Germany) in the presence of 12 different concentrations of analyte (0-5000 nM, 100 μL/well). After incubation, the mixture was removed and the wells were washed 3 times with PBS using a multiscreen vacuum manifold (Millipore, Billerica, Mass.). Cell-bound radioactivity was measured using a gamma counter (Packard Cobra II, GMI, Minnesota, USA). The 50% inhibitory concentration (IC50) values were calculated by fitting the data using a nonlinear regression algorithm (GraphPad Software).

[3] = Organ distribution Tumor (tumor accumulation)
[4] = Tumor-to-Organ ratio T/Intestine

T1 sequence (Q04609 whole entry): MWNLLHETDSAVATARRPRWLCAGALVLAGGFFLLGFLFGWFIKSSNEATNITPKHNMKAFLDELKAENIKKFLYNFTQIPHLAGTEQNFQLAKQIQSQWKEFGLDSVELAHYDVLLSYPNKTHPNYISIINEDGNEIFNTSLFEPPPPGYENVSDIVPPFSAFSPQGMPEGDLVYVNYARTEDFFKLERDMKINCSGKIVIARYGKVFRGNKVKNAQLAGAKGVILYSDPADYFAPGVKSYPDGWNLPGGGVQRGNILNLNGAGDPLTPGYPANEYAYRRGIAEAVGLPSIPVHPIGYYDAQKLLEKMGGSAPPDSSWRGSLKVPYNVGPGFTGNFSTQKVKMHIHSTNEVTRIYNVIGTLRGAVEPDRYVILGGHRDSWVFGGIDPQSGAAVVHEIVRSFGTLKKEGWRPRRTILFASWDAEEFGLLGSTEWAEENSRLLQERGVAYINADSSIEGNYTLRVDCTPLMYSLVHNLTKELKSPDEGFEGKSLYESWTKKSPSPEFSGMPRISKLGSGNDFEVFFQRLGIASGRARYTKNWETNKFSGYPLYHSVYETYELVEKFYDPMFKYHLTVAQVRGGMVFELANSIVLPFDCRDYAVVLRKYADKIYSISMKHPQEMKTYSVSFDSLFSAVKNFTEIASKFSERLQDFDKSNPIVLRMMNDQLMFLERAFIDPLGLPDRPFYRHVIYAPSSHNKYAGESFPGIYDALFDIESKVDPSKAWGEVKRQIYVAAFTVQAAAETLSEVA

SMILES | tissue uptake at 1 h ([1]; Organ distribution Blood) | tissue uptake at 1 h ([1]; Organ distribution Brain) | tissue uptake at 1 h ([1]; Organ distribution Heart) | tissue uptake at 1 h ([1]; Organ distribution Intestine) | tissue uptake at 1 h ([1]; Organ distribution Kidney) | tissue uptake at 1 h ([1]; Organ distribution Liver) | tissue uptake at 1 h ([1]; Organ distribution Lung) | tissue uptake at 1 h ([1]; Organ distribution Muscle) | tissue uptake at 1 h ([1]; Organ distribution Spleen) | tissue uptake at 1 h [1, 3] | tissue to tissue ratio at 1 h ([1]; Tumor-to-Organ ratio T/Blood) | tissue to tissue ratio at 1 h ([1]; Tumor-to-Organ ratio T/Brain) | tissue to tissue ratio at 1 h ([1]; Tumor-to-Organ ratio T/Heart) | tissue to tissue ratio at 1 h [1, 4] | tissue to tissue ratio at 1 h ([1]; Tumor-to-Organ ratio T/Kidney) | tissue to tissue ratio at 1 h ([1]; Tumor-to-Organ ratio T/Liver) | tissue to tissue ratio at 1 h ([1]; Tumor-to-Organ ratio T/Lung) | tissue to tissue ratio at 1 h ([1]; Tumor-to-Organ ratio T/Muscle) | tissue to tissue ratio at 1 h ([1]; Tumor-to-Organ ratio T/Spleen) | other results
CC1(C)C(/C=C/C2=C(Oc3ccc(S(=O)(=O)O)cc3)C(=C\C=C3/N(CCCCS(=O)(=O)O)c4ccc(S(=O)(=O)O)cc4C3(C)C)/CCC2)=[N+](CCCCCC(=O)NCCOCCOCCNC(=O)CCc2ccc(O)c(CN(CCN(CC(=O)O)Cc3cc(CCC(=O)NCc4cn(CCCCC(=O)NC(CCC(=O)O)C(=O)NC(Cc5cnc[nH]5)C(=O)NCCCCC(NC(=O)NC(CCC(=O)O)C(=O)O)C(=O)O)nn4)ccc3O)CC(=O)O)c2)c2ccc(S(=O)(=O)O)cc21 (centres unmarked) [PSMA-(HE)1-HBED-CC-PEG2-IRDye800CW, Glu-urea-Lys-(HE)1-HBED-CC-PEG2-IRDye800CW] | 1.52 %ID/g | 0.3 %ID/g | 0.94 %ID/g | 1.29 %ID/g | 84.3 %ID/g | 1.19 %ID/g | 2.46 %ID/g | 1.03 %ID/g | 8.17 %ID/g | 3.92 %ID/g | 2.58 | 13 | 4.19 | 3.05 | 0.05 | 3.3 | 1.6 | 3.81 | 0.48 | 
CC1(C)C(/C=C/C2=C(Oc3ccc(S(=O)(=O)O)cc3)C(=C\C=C3/N(CCCCS(=O)(=O)O)c4ccc(S(=O)(=O)O)cc4C3(C)C)/CCC2)=[N+](CCCCCC(=O)NCCOCCOCCNC(=O)CCc2ccc(O)c(CN(CCN(CC(=O)O)Cc3cc(CCC(=O)NCc4cn(CCCCC(=O)N[C@@H](CCC(=O)O)C(=O)N[C@@H](Cc5cnc[nH]5)C(=O)N[C@@H](CCC(=O)O)C(=O)N[C@@H](Cc5cnc[nH]5)C(=O)N[C@@H](CCC(=O)O)C(=O)N[C@@H](Cc5cnc[nH]5)C(=O)NCCCC[C@H](NC(=O)N[C@@H](CCC(=O)O)C(=O)O)C(=O)O)nn4)ccc3O)CC(=O)O)c2)c2ccc(S(=O)(=O)O)cc21 [PSMA-(HE)3-HBED-CC-PEG2-IRDye800CW, Glu-urea-Lys-(HE)3-HBED-CC-PEG2-IRDye800CW] | 1.12 %ID/g | 0.18 %ID/g | 1.36 %ID/g | 1.31 %ID/g | 109 %ID/g | 1.25 %ID/g | 2.34 %ID/g | 1.18 %ID/g | 3.47 %ID/g | 7.59 %ID/g | 6.8 | 42.6 | 5.57 | 5.8 | 0.07 | 6.08 | 3.24 | 6.45 | 2.19 | Tumor-to-Organ ratio T/Blood [2]: 6.80; Tumor-to-Organ ratio T/Brain [2]: 42.63; Tumor-to-Organ ratio T/Heart [2]: 5.57; Tumor-to-Organ ratio T/Intestine [2]: 5.80; Tumor-to-Organ ratio T/Kidney [2]: 0.07; Tumor-to-Organ ratio T/Liver [2]: 6.08; Tumor-to-Organ ratio T/Lung [2]: 3.24; Tumor-to-Organ ratio T/Muscle [2]: 6.45; Tumor-to-Organ ratio T/Spleen [2]: 2.19; tissue uptake at 2 h ([1]; Organ distribution Blood): 0.65 %ID/g; tissue uptake at 2 h ([1]; Organ distribution Brain): 0.23 %ID/g; tissue uptake at 2 h ([1]; Organ distribution Heart): 0.53 %ID/g; tissue uptake at 2 h ([1]; Organ distribution Intestine): 0.67 %ID/g; tissue uptake at 2 h ([1]; Organ distribution Kidney): 55.8 %ID/g; tissue uptake at 2 h ([1]; Organ distribution Liver): 0.76 %ID/g; tissue uptake at 2 h ([1]; Organ distribution Lung): 0.89 %ID/g; tissue uptake at 2 h ([1]; Organ distribution Muscle): 0.47 %ID/g; tissue uptake at 2 h ([1]; Organ distribution Spleen): 0.76 %ID/g; tissue uptake at 2 h ([1]; Organ distribution Tumor): 3.1 %ID/g; Ki (PSMA): 36.7 ± 9.77 nM
CC1(C)C(/C=C/C2=C(Oc3ccc(S(=O)(=O)O)cc3)C(=C\C=C3/N(CCCCS(=O)(=O)O)c4ccc(S(=O)(=O)O)cc4C3(C)C)/CCC2)=[N+](CCCCCC(=O)NCCOCCOCCNC(=O)CCc2ccc(O)c(CN(CCN(CC(=O)O)Cc3cc(CCC(=O)NCc4cn(CCCCC(=O)NC(CCC(=O)O)C(=O)NC(Cc5c[nH]c6ccccc56)C(=O)NCCCCC(NC(=O)NC(CCC(=O)O)C(=O)O)C(=O)O)nn4)ccc3O)CC(=O)O)c2)c2ccc(S(=O)(=O)O)cc21 (centres unmarked) [PSMA-(WE)1-HBED-CC-PEG2-IRDye800CW, Glu-urea-Lys-(WE)1-HBED-CC-PEG2-IRDye800CW] | 1.61 %ID/g | 0.15 %ID/g | 1.49 %ID/g | 0.96 %ID/g | 105 %ID/g | 1.73 %ID/g | 2.57 %ID/g | 1 %ID/g | 12.9 %ID/g | 3.85 %ID/g | 2.39 | 25.6 | 2.59 | 4.01 | 0.04 | 2.23 | 1.5 | 3.86 | 0.3 | 
